Patent US20210380679A1 (INHIBRX BIOSCIENCES, published 2021)
Positions count from the first letter of the chain named.

B1: cx4896 (bispecific antibody)
chain 1: EVQLVESGGGEVQPGGSLRLSCAASGSIFSINAMGWYRQAPGKQRELVAGFTGDTNTIYAESVKGRFTISRDNAKNTVYLQMSSLRAEDTAVYYCAADVQLFSRDYEFYWGQGTLVTVKPDKTHTCPPCPAPGGPSVFLFPPKPKDTLMISRTPEVTCVVVDVSHEDPEVKFNWYVDGVEVHNAKTKPREEQYNSTYRVVSVLTVLHQDWLNGKEYKCKVSNKALPAPIEKTISKAKGQPREPQVYTLPPCRDELTKNQVSLWCLVKGFYPSDIAVEWESNGQPENNYKTTPPVLDSDGSFFLYSKLTVDKSRWQQGNVFSCSVMHEALHNHYTQKSLSLSPTGGGGGSGGGGGSGGGGGSEVQLVESGGGLVQPGGSLRLSCAASGFTFNTYAMNWVRQAPGKCLEWVARIRSKYNNYATYYADSVKGRFTISRDDAKNTLYLQMSSLRAEDTAVYYCVRHGNFGNSYVSWFAYWGQGTLVTVKPEVQLVESGGGEVQPGGSLRLSCGPSEIITSDKSVGWWRQAPGKQRNLVAGISNVGSTNYAQSVKGRFTISRDNAKNTLYLQMSSLRAEDTAVYYCYARDFENEYWGQGTLVTVKP
chain 2: DKTHTCPPCPAPGGPSVFLFPPKPKDTLMISRTPEVTCVVVDVSHEDPEVKFNWYVDGVEVHNAKTKPREEQYNSTYRVVSVLTVLHQDWLNGKEYKCKVSNKALPAPIEKTISKAKGQPREPQVCTLPPSRDELTKNQVSLSCAVKGFYPSDIAVEWESNGQPENNYKTTPPVLDSDGSFFLVSKLTVDKSRWQQGNVFSCSVMHEALHNRYTQKSLSLSPTGGGGGSGGGGGSGGGGGSQAVVTQEPSLTVSPGGTVTLTCGSSTGAVTTSNYANWVQQKPGQAFRGLIGGTNKRAPGVPARFSGSLLGGKAALTISGAQPEDEADYYCALWYSNHWVFGCGTKLEIKEVQLLESGGGEVQPGGSLRLSCAASGFSFSINAMGWYRQAPGKRREFVAAIESGRNTVYAESVKGRFTISRDNAKNTVYLQMSSLRAEDTAVYYCGLLKGNRVVSPSVAYWGQGTLVTVKP
notes: also carries a 41BB sdAb
B2: cx4895 (bispecific antibody)
chain 1: EVQLVQSGGGLVQAGGSLRLSCAASGSILSINAMGWYRQPPGKQREMVAGFTGDGNTIYADSVKGRFTISRDNAKNTVYLQMNSLKPEDTAVYYCAADVQLFSRDYEFYWGQGTQVTVKPDKTHTCPPCPAPGGPSVFLFPPKPKDTLMISRTPEVTCVVVDVSHEDPEVKFNWYVDGVEVHNAKTKPREEQYNSTYRVVSVLTVLHQDWLNGKEYKCKVSNKALPAPIEKTISKAKGQPREPQVYTLPPCRDELTKNQVSLWCLVKGFYPSDIAVEWESNGQPENNYKTTPPVLDSDGSFFLYSKLTVDKSRWQQGNVFSCSVMHEALHNHYTQKSLSLSPTGGGGGSGGGGGSGGGGGSEVQLVESGGGLVQPGGSLRLSCAASGFTFNTYAMNWVRQAPGKCLEWVARIRSKYNNYATYYADSVKGRFTISRDDAKNTLYLQMSSLRAEDTAVYYCVRHGNFGNSYVSWFAYWGQGTLVTVKPEVQLQESGGGLVQAGGSLRLSCGPSEIITSDKSVGWWRQAPGKQRNLVAGISNVGSTNYAQSVKGRFTISRDNAKNTLFLQMNSLKPEDTAVYYCYARDFENEYWGRGTQVTVKP
chain 2: B1 chain 2
notes: as printed the same parts as cx4720
B3: cx4720 (bispecific antibody)
chain 1: B2 chain 1
chain 2: B1 chain 2
notes: also carries a 41BB sdAb
B4: cx4888 (bispecific antibody)
chain 1: B1 chain 1 with G509A, P510A, Y565F
chain 2: B1 chain 2
notes: also carries a 41BB sdAb
B5: cx4890 (bispecific antibody)
chain 1: B2 chain 1
chain 2: DKTHTCPPCPAPGGPSVFLFPPKPKDTLMISRTPEVTCVVVDVSHEDPEVKFNWYVDGVEVHNAKTKPREEQYNSTYRVVSVLTVLHQDWLNGKEYKCKVSNKALPAPIEKTISKAKGQPREPQVCTLPPSRDELTKNQVSLSCAVKGFYPSDIAVEWESNGQPENNYKTTPPVLDSDGSFFLVSKLTVDKSRWQQGNVFSCSVMHEALHNRYTQKSLSLSPTGGGGGSGGGGGSGGGGGSQAVVTQEPSLTVSPGGTVTLTCGSSTGAVTTSNYANWVQQKPGQAFRGLIGGTNKRAPGVPARFSGSLLGGKAALTISGAQPEDEADYYCALWYSNHWVFGCGTKLEIK
B6: cx4899 (bispecific antibody)
chain 1: EVQLVESGGGEVQPGGSLRLSCGPSEIITSDKSVGWWRQAPGKQRNLVAGISNVGSTNYAQSVKGRFTISRDNAKNTLYLQMSSLRAEDTAVYYCYARDFENEYWGQGTLVTVKPDKTHTCPPCPAPGGPSVFLFPPKPKDTLMISRTPEVTCVVVDVSHEDPEVKFNWYVDGVEVHNAKTKPREEQYNSTYRVVSVLTVLHQDWLNGKEYKCKVSNKALPAPIEKTISKAKGQPREPQVYTLPPCRDELTKNQVSLWCLVKGFYPSDIAVEWESNGQPENNYKTTPPVLDSDGSFFLYSKLTVDKSRWQQGNVFSCSVMHEALHNHYTQKSLSLSPTGGGGGSGGGGGSGGGGGSEVQLVESGGGLVQPGGSLRLSCAASGFTFNTYAMNWVRQAPGKCLEWVARIRSKYNNYATYYADSVKGRFTISRDDAKNTLYLQMSSLRAEDTAVYYCVRHGNFGNSYVSWFAYWGQGTLVTVKPEVQLVESGGGEVQPGGSLRLSCAASGSIFSINAMGWYRQAPGKQRELVAGFTGDTNTIYAESVKGRFTISRDNAKNTVYLQMSSLRAEDTAVYYCAADVQLFSRDYEFYWGQGTLVTVKP
chain 2: B5 chain 2
B7: 6B4 (Fc fusion)
VHH: QVTLRESGGGLVQAGGSLRLSCGASEITLSDKTVGWYRQAPGKQRVLVAVISNVDSTNYAHSVKGRFTISRDNAKNTVYLQMNSLKPEDTAVYYCYARDFEAEYWGQGTLVTVKP
notes: tested as VHH-human Fc; Fc not specified
B8: L6F1 (Fc fusion)
VHH: B7 VHH with T3Q, R5V, E6Q, T28I, L29F, H61Q, A102S, Q107R, L110Q
notes: as for B7
B9: L8E7 (Fc fusion)
VHH: EVQLQESGGGLVQAGGSLRLSCGPSEIITSDKSVGWWRQAPGKQRNLVAGISNVGSTNYAQSVKGRFTISRDNAKNTLFLQMNSLKPEDTAVYYCYARDFENEYWGRGTQVTVKP
notes: as for B7

How the values were obtained:
[1] = target: T1, human DLL3 (Delta-like ligand 3) (human, UniProt Q9NYJ7 27-618); experiment: flow cytometry, SHP-77 cells
T1 construct: endogenous on SHP-77 cells; also called cell-surface DLL3
T1 sequence: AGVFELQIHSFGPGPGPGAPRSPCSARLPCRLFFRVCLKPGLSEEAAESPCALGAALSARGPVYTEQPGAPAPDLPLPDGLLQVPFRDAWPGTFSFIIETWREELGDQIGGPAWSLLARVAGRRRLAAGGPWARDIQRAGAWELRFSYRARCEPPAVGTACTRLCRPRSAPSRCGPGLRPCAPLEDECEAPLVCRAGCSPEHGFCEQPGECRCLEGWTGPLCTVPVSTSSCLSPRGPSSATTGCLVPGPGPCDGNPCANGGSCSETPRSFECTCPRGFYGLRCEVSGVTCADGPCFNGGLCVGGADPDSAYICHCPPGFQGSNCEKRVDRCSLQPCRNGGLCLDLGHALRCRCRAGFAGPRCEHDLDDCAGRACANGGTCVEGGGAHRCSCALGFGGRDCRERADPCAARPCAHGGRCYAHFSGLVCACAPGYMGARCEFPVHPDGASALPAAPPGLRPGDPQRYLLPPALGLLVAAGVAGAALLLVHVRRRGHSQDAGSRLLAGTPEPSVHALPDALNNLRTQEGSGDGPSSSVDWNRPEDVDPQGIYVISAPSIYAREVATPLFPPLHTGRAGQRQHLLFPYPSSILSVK
Description: (§1) Binding of exemplary DLL3-targeting constrained CD3 engaging constructs of the disclosure, referred to herein as cx4720, cx3715, cx4422, cx3708, cx4052, cx3985, cx4059, cx4087, cx4088, cx4895, cx3991, cx3711, cx4887, cx4896, cx4899, cx4406, cx3707, cx3710, cx4888 and cx4890, to CD3 on the surface of primary T cells was assessed via flow cytometry (SONY SA3800 spectral analyzer) using T-cell that were negatively enriched from PBMCs isolated from healthy human donor leukopaks. Representative DLL3-targeting constrained CD3 engaging constructs were assessed for binding to T cells and DLL3 expressing cells (SHP-77). Bound cx4720, cx3715, cx4422, cx3708, cx4052, cx3985, cx4059, cx4087, cx4088, cx4895, cx3991, cx3711, cx4887, cx4896, cx4899, cx4406, cx3707, cx3710, cx4888 and cx4890 was detected with fluorophore-conjugated secondary antibodies specific for the human Fc and binding was measured by flow cytometry. Cells incubated with secondary antibody only served as negative controls.
(§2) Table E4 summarizes the affinity of exemplary molecules for DLL3 or CD3, as determined from flow cytometry, in these studies.

[2] = target: T2, CD3 on the surface of T cells (human, UniProt P07766 23-207); experiment: flow cytometry, primary human T cells
T2 construct: whole, on cells; multi-chain complex; also called CD3 epsilon
Description: as §1, §2

[3] = target: T1, human DLL3 (Delta-like ligand 3); experiment: flow cytometry, sdAb-Fc titrated on SHP-77 cells (DLL3 positive), APC anti-human Fc secondary
Description: Specificity and relative affinity were assessed for purified sdAb-Fcs on DLL3-expressing cells. […] A titration series of the fusion protein was incubated with the DLL3-expressing cell lines (approximately 2.5×10⁴ to 5×10⁴ cells/well) for 30 minutes at 4 degrees Celsius in FACS Buffer (PBS 1% BSA, 0.1% NaN₃ pH 7.4) in 96-well plates. Following three wash steps in FACS buffer, an APC-conjugated anti-human Fcγ specific secondary antibody (Jackson ImmunoResearch) was added and incubated for 30 minutes at 4 degrees Celsius. Following three additional wash steps in FACS buffer bound antibody was detected via flow cytometry (IQue Intellicyte).

T2 sequence (P07766 23-207): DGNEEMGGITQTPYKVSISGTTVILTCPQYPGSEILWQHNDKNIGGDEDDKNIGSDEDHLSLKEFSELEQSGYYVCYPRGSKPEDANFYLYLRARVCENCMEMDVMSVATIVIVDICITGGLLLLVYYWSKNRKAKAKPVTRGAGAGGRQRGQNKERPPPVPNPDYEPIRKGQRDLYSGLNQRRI

Row | Binder | Kd [1] [nM] | Kd [2] [nM] | binding result [3]
1 | B1 | 0.339 | > 200 | –
2 | B2 | 0.065 | > 200 | –
3 | B3 | 0.115 | > 200 | –
4 | B4 | 0.134 | > 200 | –
5 | B5 | 0.062 | > 200 | –
6 | B6 | 0.397 | > 200 | –
7 | B7 | – | – | binds
8 | B8 | – | – | binds
9 | B9 | – | – | binds
